{
  "source": "patent US8084418B2",
  "molecular_target": "XptA2wi (Xenorhabdus nematophilus str Xwi)",
  "data": [
    {"substance": "XptB1xb + XptC1xb", "values": [
      {"measurement": "dead corn earworm larvae of 8 (pDAB6026 lysate + purified XptA2wi) (dead insects (of 8))", "result": 8}
    ]}
  ]
}
